According to US20200010542A1 (MorphoSys, published 2020):
Numbering of substitutions follows the chain as printed.

Key:
human IL-17C [1] = target: T1, human IL-17C (human, UniProt Q9P0M4 19-197); assay: cell-based or functional assay
T1 sequence: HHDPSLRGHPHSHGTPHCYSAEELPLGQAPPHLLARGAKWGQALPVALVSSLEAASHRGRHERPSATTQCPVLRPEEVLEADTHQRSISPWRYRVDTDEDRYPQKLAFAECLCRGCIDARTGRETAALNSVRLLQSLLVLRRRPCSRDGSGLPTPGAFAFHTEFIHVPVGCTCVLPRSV

cynomolgus IL-17C = target: T2, cynomolgus IL-17C (cynomolgus monkey, UniProt Q9P0M4 19-197 (human entry), limits assumed); assay: cell-based or functional assay
T2 chain: T1 sequence with H2Q, S5F, S12T, H17R, S56G, G59R, E62D, T67A, A119P, H166R

mouse IL-17C [2] = target: T3, mouse IL-17C (mouse, UniProt Q8K4C5 17-194); assay: cell-based or functional assay
T3 sequence: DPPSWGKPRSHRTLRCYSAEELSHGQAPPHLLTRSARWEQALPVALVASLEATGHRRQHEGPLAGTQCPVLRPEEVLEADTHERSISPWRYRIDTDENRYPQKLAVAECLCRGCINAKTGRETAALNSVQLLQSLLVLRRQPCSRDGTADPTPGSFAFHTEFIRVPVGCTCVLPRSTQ

human IL-17C [3] = target: T1, human IL-17C; assay: cell-based or functional assay; remark: listed apart in the source
human IL-17C [4] = target: T1, human IL-17C; assay: SET (ECL based), IgG, bivalent affinity, hGT454
Method: (§1) Additionally monovalent Fab and bivalent IgG affinity was determined by SET. Therefore purified Fabs and IgGs were titrated on human or mouse IL-17C for EC₅₀ determination. The results confirmed the proposed avidity effect exerted by IgG antibodies forming mainly class III complexes.
(§2) Solution equilibrium titration (SET) was basically performed as described in the literature (Friquet et al., (1985) J. Immunol. Meth. 77: 305-19). In order to improve the sensitivity and accuracy of the SET method, it was transferred from classical ELISA to ECL based technology (Haenel et al. (2005) Anal Biochem. 339.1: 182-84).

mouse IL-17C [5] = target: T3, mouse IL-17C; assay: SET (ECL based), IgG, bivalent affinity, mGT454
Method: as §1, §2

human IL-17C [6] = target: T1, human IL-17C; assay: MSD receptor binding inhibition: IgG with biotinylated IL-17C on coated IL17RE/Fc (head: hIL-17C-hIL17RE; text: mouse IL17RE/Fc)
Method: Purified IL-17C specific IgGs were tested in mIL-17 RE interaction assay. Therefore MA6000 384 well plates (Meso Scale Discovery, MSD) were coated with 30 μl mouse IL17RE/Fc chimeric protein at 75 ng/ml in PBS at 4° C. overnight. The next day a serial antibody dilution (concentrations from 0.001 to 100 nM) were pre-incubated for 30 min at RT with an equal volume of biotinylated IL-17C. After blocking of plates for 1 h with 2.5% BSA in PBST, previously formed antibody-ligand complexes were added for 1 h to coated IL17RE/Fc and receptor binding was detected via Streptavidin-ECL using MSD Sector Imager.

human IL-17C [7] = target: T1, human IL-17C; assay: SET (ECL based), Fab, monovalent affinity, hGT454
Method: as §1, §2

mouse IL-17C [8] = target: T3, mouse IL-17C; assay: SET (ECL based), Fab, monovalent affinity, mGT454
Method: as §1, §2

B1: mab_1 (IgG1) (antibody, V domains shown)
VH: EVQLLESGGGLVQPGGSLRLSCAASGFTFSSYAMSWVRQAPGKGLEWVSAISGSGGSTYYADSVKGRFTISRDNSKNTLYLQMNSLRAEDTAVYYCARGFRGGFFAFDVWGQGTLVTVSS
VL: SYELTQPPSVSVSPGQTASITCSGDKLGDKYAYWYQQKPGQSPVLVIYQDSKRPSGIPERFSGSNSGNTATLTISGTQAEDEADYYCQAWTFPLLTWVFGGGTKLTVLG
notes: Human IgG1 from the Ylanthia library, VH3-23 / Vlambda3-1, made in HKB11 cells
- NF-kB reporter gene assay (IgG) IC50 [pM] (human IL-17C [1]): 29 pM
- NF-kB reporter gene assay (IgG) IC50 [pM] (cynomolgus IL-17C): 24 pM
- NF-kB reporter gene assay (IgG) IC50 [pM] (mouse IL-17C [2]): 46 pM
- NHEK assay IC50 [pM] (expression of DEFB4A) (human IL-17C [3]): 415 pM
- EC50 (human IL-17C [4]): 0.017 nM
- EC50 (mouse IL-17C [5]): 0.15 nM
- IC50 (human IL-17C [6]): 0.04 nM

B2: mab_1 Fab (Fab, V domains shown)
VH: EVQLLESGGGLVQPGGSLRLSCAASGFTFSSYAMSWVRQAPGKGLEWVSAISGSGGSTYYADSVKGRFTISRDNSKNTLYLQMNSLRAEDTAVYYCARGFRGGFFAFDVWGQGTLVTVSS
VL: B1 VL
notes: His-tagged Fab made in E. coli; also called mab_1 (Fab format)
- EC50 (human IL-17C [7]): 4.8 nM
- EC50 (mouse IL-17C [8]): 72 nM

B3: mab_8 (IgG1) (antibody, V domains shown)
VH: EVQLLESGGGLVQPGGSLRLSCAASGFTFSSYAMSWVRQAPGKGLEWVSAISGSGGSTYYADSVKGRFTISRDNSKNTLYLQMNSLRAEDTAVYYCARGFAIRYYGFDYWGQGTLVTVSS
VL: B1 VL with A89V, W90F, L95V, W97T
notes: as for B1
- NF-kB reporter gene assay (IgG) IC50 [pM] (human IL-17C [1]): 42 pM
- NF-kB reporter gene assay (IgG) IC50 [pM] (cynomolgus IL-17C): 39 pM
- NF-kB reporter gene assay (IgG) IC50 [pM] (mouse IL-17C [2]): 1770 pM
- NHEK assay IC50 [pM] (expression of DEFB4A) (human IL-17C [3]): 93 pM
- EC50 (human IL-17C [4]): 0.022 nM
- EC50 (mouse IL-17C [5]): 3.35 nM
- IC50 (human IL-17C [6]): 0.13 nM

B4: mab_8 Fab (Fab, V domains shown)
VH: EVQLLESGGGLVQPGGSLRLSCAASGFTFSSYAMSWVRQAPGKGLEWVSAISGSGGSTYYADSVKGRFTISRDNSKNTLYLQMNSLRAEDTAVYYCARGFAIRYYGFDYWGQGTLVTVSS
VL: B1 VL with A89V, W90F, L95V, W97T
notes: His-tagged Fab made in E. coli; also called mab_8 (Fab format)
- EC50 (human IL-17C [7]): 2.7 nM
- EC50 (mouse IL-17C [8]): 490 nM
